The results in this text go back to publication PMC12723728.

Substrate in this series: C[S+](CC[C@H](N)C(=O)O)C[C@H]1O[C@@H](n2cnc3c(N)ncnc32)[C@H](O)[C@@H]1O
Briefly: purified protein. The settings on record: co-substrate mGpppAmC RNA 1 μM; 100 nM enzyme; SAM 0.5-6 μM; labelled compound.

B1: CMTR2 (Homo sapiens) (protein)
chain: MSKCRKTPVQQLASPASFSPDILADIFELFAKNFSYGKPLNNEWQLPDPSEIFTCDHTELNAFLDLKNSLNEVKNLLSDKKLDEWHEHTAFTNKAGKIISHVRKSVNAELCTQAWCKFHEILCSFPLIPQEAFQNGKLNSLHLCEAPGAFIASLNHYLKSHRFPCHWSWVANTLNPYHEANDDLMMIMDDRLIANTLHWWYFGPDNTGDIMTLKFLTGLQNFISSMATVHLVTADGSFDCQGNPGEQEALVSSLHYCEVVTALTTLGNGGSFVLKMFTMFEHCSINLMYLLNCCFDQVHVFKPATSKAGNSEVYVVCLHYKGREAIHPLLSKMTLNFGTEMKRKALFPHHVIPDSFLKRHEECCVFFHKYQLETISENIRLFECMGKAEQEKLNNLRDCAIQYFMQKFQLKHLSRNNWLVKKSSIGCSTNTKWFGQRNKYFKTYNERKMLEALSWKDKVAKGYFNSWAEEHGVYHPGQSSILEGTASNLECHLWHILEGKKLPKVKCSPFCNGEILKTLNEAIEKSLGGAFNLDSKFRPKQQYSCSCHVFSEELIFSELCSLTECLQDEQVVVPSNQIKCLLVGFSTLRNIKMHIPLEVRLLESAELTTFSCSLLHDGDPTYQRLFLDCLLHSLRELHTGDVMILPVLSCFTRFMAGLIFVLHSCFRFITFVCPTSSDPLRTCAVLLCVGYQDLPNPVFRYLQSVNELLSTLLNSDSPQQVLQFVPMEVLLKGALLDFLWDLNAAIAKRHLHFIIQREREEIINSLQLQN
Take B1: the K0.5 worked out at 1.3 ± 0.1 µM and the kcat is 0.000944 ± 0.00011 s⁻¹.
